Key:
[1] = molecular target: plasma FXI of Maine Coon cats homozygous for the M516 variant (feline (endogenous in Maine Coon cat plasma)); test: non-reducing SDS-PAGE with Western blot; citrated plasma (1 µL) on non-reducing 7.5% polyacrylamide gels; detected with biotinylated IgG 14E11 and streptavidin-horseradish peroxidase
[2] = molecular target: plasma FXI of Maine Coon cats homozygous for wild-type FXI (feline (endogenous in Maine Coon cat plasma)); test: as above
[3] = molecular target: plasma-derived human FXI (pFXI) (human); test: SDS-PAGE under non-reducing and reducing conditions; purified FXI on a 7.5% polyacrylamide gel, Coomassie blue stained; homodimer unreduced, monomer reduced
[4] = molecular target: recombinant variant feline factor XI (fFXI-M516) (feline (Felis catus)); test: as above
[5] = molecular target: recombinant wild-type feline factor XI (fFXI-V516) (feline (Felis catus)); test: as above
[6] = molecular target: recombinant wild-type human factor XI (hFXI-V516) (human); test: as above

With “plasma FXI of Maine Coon cats homozygous for the M516 variant (natural protein)” the stoichiometry N [1] was 2.

“plasma FXI of Maine Coon cats homozygous for wild-type FXI (natural protein)” was tested, and the stoichiometry N [2] was 2.

For “plasma-derived human FXI (pFXI) (natural protein)”, the stoichiometry N [3] was 2.

In the case of “recombinant variant feline factor XI (fFXI-M516) (natural protein)”, the stoichiometry N [4] is reported as 2.

In the case of “recombinant wild-type feline factor XI (fFXI-V516) (natural protein)”, the stoichiometry N [5] is reported as 2.

Work on “recombinant wild-type human factor XI (hFXI-V516) (natural protein)” yielded a stoichiometry N [6] of 2.
